Assay results published in publication PMC7006816, “Human β-Defensin 2 Mediated Immune Modulation as Treatment for Experimental Colitis” (Frontiers in Immunology, 2020).
Where no end group is shown, it is not given here.

How the values were obtained:
[1] = test system: BALB/cByJ mice with TNBS colitis; experiment: TNBS colitis model; format: in vivo, mouse; conditions: hBD2 0.1 mg/kg s.c. once a day
Protocol: The TNBS colitis study was performed by Farma-Cros Ibérica according to directive 86/609 EEC and approved by Novozymes science ethics committee. Male BALB/cByJ mice were used (Janvier) and each group consisted of 15 animals. Animal allocation to all experimental groups was done in a randomized manner. Colitis was induced on day 0 by intracolonic (distal) administration of trinitrobenzene sulfonic acid (TNBS), 1 mg/mouse in 50% ethanol under mild anesthesia (ketamine/xylazine). Treatment of the animals started on day 0 after induction of colitis. All compounds were applied s.c. Mice received PBS (TNBS control), Prednisolone (10 mg/kg), or hBD2 0.1 mg/kg), respectively. In the TNBS control group as well as in the Prednisolone group, 2 animals had to be sacrificed before the end of the experiment. All other animals were sacrificed on day 10. Daily clinical assessment was carried out to calculate a validated clinical DAI ranging from 0 to 4 according to the following parameters: body weight loss, presence or absence of rectal bleeding, stool consistency.
Sections of the colon were taken from each animal and preserved in neutral buffered formaline for subsequent histological analysis. Sections were stained using haematoxylin and eosin for further scoring.

NMRI mice = experiment: In vivo toxicity test, single s.c. dose; parameters: species or system mouse; conditions: for Clinical signs at the end of the day of dosing / Clinical signs on the day of dosing: Clinical signs / Clinical signs on the day of dosing: No clinical signs / Clinical signs on the day of dosing: Pruritus / Necropsy: Macroscopic findings: female NMRI mice; for Clinical signs at the end of the day of dosing / Clinical signs on the day of dosing: Clinical signs / Clinical signs on the day of dosing: No clinical signs / Clinical signs on the day of dosing: Pruritus: animals/group; for Necropsy: Macroscopic findings: necropsy day 4, animals/group
Protocol: In vivo toxicity of hBD2 was assessed in 6–8 weeks old female NMRI mice (Taconic Europe). All animal studies were performed according to Danish legislations for laboratory animals and approved by Novozymes science ethics committee. hBD2 was given subcutaneously (s.c.) in the intrascapular region using a 25G needle and a 1 ml syringe. […] Clinical signs were recorded on day 0 and monitored until experimental endpoints. Body weights were recorded as a minimum on day 0, day 2, and day 4 prior to euthanasia. Necropsy was performed after euthanasia and kidneys, spleens and livers were weighed.

human Mo-DC's = experiment: Cytokine production by human Mo-DC's; format: cell-based; conditions: hBD2 100 μg/ml or 10 μg/ml, 24 h, ELISA, n = 3
Protocol: Peripheral blood was drawn from healthy donors and diluted one to one in PBS. The mixture was stacked in a falcon tube on Biocoll separation solution (Biochrome) with a ratio of three parts blood PBS mixture to two parts Biocoll. For a density gradient centrifugation the falcon tubes were centrifuged at 2,000 rpm for 30 min at RT. The PBMC's were removed and washed twice with PBS. 1.5 × 10^6 cells were seeded per well in a tissue culture-treated 6-well plate in RPMI-1640 medium (Merck) supplemented with 10% fetal calf serum (FCS; Sigma-Aldrich), 2 mM L-glutamine (Biochrome), 100 U/ml penicillin/streptomycin (Gibco), 50 μM 2-mercaptoethanol (Fluka), 1 mM sodium pyruvate (Biochrome), and 1x non-essential amino acids (Biochrome) and incubated for 1 h at 37°C and 5% CO2 for monocyte adherence. Then the cells were washed with media and PBS to remove the non-adherent cells and were cultivated for 6 days with media additional supplemented with 50 ng IL-4 and 100 ng GM-CSF (Miltenyi). […]
2 × 10^5 murine BM-DC's or human Mo-DC's were seeded in 96-well round bottom plates. […] 24 h later supernatants were collected and TNF-α [Biolegend (BM-DC's); R&D (Mo-DC's)] was analyzed according to the manufacturer's instructions. IL-10, IL-12, and IL-1β (LEGENDplex Biolegend) was as well-analyzed according to the manufacturer's instructions.

murine BM-DC's = experiment: Cytokine production by murine BM-DC's; format: cell-based, mouse; conditions: n = 3
Protocol: BM-DC's were generated using granulocyte-macrophage colony-stimulating factor (GM-CSF) and RPMI-1640 medium (Merck) supplemented with 10% fetal calf serum (FBS; Life Technologies), 2 mM glutamine (Thermo Fisher), 100 U/ml penicillin/streptomycin (Gibco), 50 μM 2-mercaptoethanol (Roth), 1 mM sodium pyruvate (Biochrome), and 1x non-essential amino acids (Biochrome) as previously described ([28]). Shortly, 2 × 10^6 bone marrow cells flushed from the tibias and femurs of C57BL/6 mice were seeded in dishes containing 200 U/ml GM-CSF. After 3 days extra medium containing GM-CSF was added to the cells and on day 6 half of the medium was replaced by fresh […] containing GM-CSF. After 7 or 8 days slightly attached cells were harvested. Female C57BL/6JolaHsd mice were purchased from Janvier (St. Berthevin Cedex, France). Animal experiments were performed in strict accordance with the German regulations of the Society for Laboratory Animal Science (GV-SOLAS) and the European Health Law of the Federation of Laboratory Animal Science Associations (FELASA). The protocol was approved by the Regierungspräsidium Tübingen (Anzeige 09.01.2014).
2 × 10^5 murine BM-DC's or human Mo-DC's were seeded in 96-well round bottom plates. First they were pretreated with 100 ng/ml pertussis toxin (Sigma-Aldrich) or 5 μM of the CCR2 inhibitor RS 504393 (Tocris) and subsequently stimulated with 100 ng/ml LPS or 0.2 […] and 10 μg/ml or 100 μg/ml hBD2. 24 h later supernatants were collected and TNF-α [Biolegend (BM-DC's); R&D (Mo-DC's)] was analyzed according to the manufacturer's instructions. IL-10, IL-12, and IL-1β (LEGENDplex Biolegend) was as well-analyzed according to the manufacturer's instructions.

[2] = LPS, hBD2 100 μg/ml, 24 h, LEGENDplex

Substance: human β-defensin 2 (GIGDPVTCLKSGAICHPVFCPRRYKQIGTCGLPGTKCCKKP; not fully specified; ends and bridges not checked) [hBD2, Recombinant human β-defensin 2 expressed in E. coli as his-tagged thioredoxin fusion, cleaved and purified, natural tertiary structure]
- Microscopic analysis of the colon (mucosa) ([1]; TNBS): nearly normal mucosa
- Weight change ([1]; TNBS 1 mg/mouse, n = 15): trended toward increased weight gain from day 1–7
- Colon weight ([1]; TNBS, n = 15): significantly reduced colon weight
- Macroscopic score of colon ([1]; TNBS, n = 15): significantly improved
- Microscopic score of colon ([1]; TNBS, n = 15): significantly improved
- Clinical signs after systemic challenge (NMRI mice; 0.5 mg/kg s.c.): did not develop any clinical signs
- Clinical signs at the end of the day of dosing (NMRI mice; 0.5 mg/kg s.c.): 0/3
- Clinical signs on the day of dosing: Clinical signs (NMRI mice; 0.5 mg/kg s.c.): 0/3
- Clinical signs on the day of dosing: No clinical signs (NMRI mice; 0.5 mg/kg s.c.): 3/3
- Clinical signs on the day of dosing: Pruritus (NMRI mice; 0.5 mg/kg s.c.): 0/3
- Necropsy: Macroscopic findings (NMRI mice; 0.5 mg/kg s.c.): 0/3
- Clinical signs at the end of the day of dosing (NMRI mice; 10 mg/kg s.c.): 0/3
- Clinical signs on the day of dosing: Clinical signs (NMRI mice; 10 mg/kg s.c.): 3/3
- Clinical signs on the day of dosing: No clinical signs (NMRI mice; 10 mg/kg s.c.): 0/3
- Clinical signs on the day of dosing: Pruritus (NMRI mice; 10 mg/kg s.c.): 3/3
- Necropsy: Macroscopic findings (NMRI mice; 10 mg/kg s.c.): 0/3
- Clinical signs at 60 min post dosing (NMRI mice; 40 mg/kg s.c.): still affected at 60 min post dosing
- Clinical signs at the end of the day of dosing (NMRI mice; 40 mg/kg s.c.): 0/3
- Clinical signs on the day of dosing: No clinical signs (NMRI mice; 40 mg/kg s.c.): 0/3
- Clinical signs on the day of dosing: Pruritus (NMRI mice; 40 mg/kg s.c.): 3/3
- Necropsy: Macroscopic findings (NMRI mice; 40 mg/kg s.c.): 0/3
- Body weight gain (NMRI mice; 0.5, 10, 40 mg/kg s.c., day 0-4): did not show any weight loss
- Adverse effects at necropsy (NMRI mice; 0.5, 10, 40 mg/kg s.c., necropsy day 4): no adverse effects were observed at necropsy
- Organ weight (liver, spleen, kidneys) (NMRI mice; 0.5, 10, 40 mg/kg s.c., necropsy day 4, hBD2 mice n = 3, control n = 2): nor did the organ weight differ significantly between the groups
- Clinical signs shortly after challenge (NMRI mice; 10 or 40 mg/kg s.c., 10–15 min after challenge, transient): mild clinical signs
- TNF-α production in LPS-challenged human mo-DCs (human Mo-DC's): dose-dependently curbed TNF-α production
- TNF-α production in LPS-challenged murine BM-DCs (murine BM-DC's; LPS, hBD2 100 μg/ml or 10 μg/ml, 24 h, ELISA): dose-dependently curbed TNF-α production
- IL-10 secretion (murine BM-DC's; [2]): substantial induction
- LPS-induced IL-1β secretion (murine BM-DC's; [2]): alleviated
- LPS-induced IL-12p70 secretion (murine BM-DC's; [2]): alleviated
- LPS-induced TNF-α secretion (murine BM-DC's; [2]): alleviated
- Cytokine production after TLR-independent activation (murine BM-DC's; cytokine cocktail TNF-α, IL-6, IL-1β (0.2 mg/ml each), hBD2 100 μg/ml): failed to modulate TLR-independent activation of BM-DCs
